According to publication PMC8819685:

Biological target: Human plasminogen (human)
Sequence (P00747 20-810): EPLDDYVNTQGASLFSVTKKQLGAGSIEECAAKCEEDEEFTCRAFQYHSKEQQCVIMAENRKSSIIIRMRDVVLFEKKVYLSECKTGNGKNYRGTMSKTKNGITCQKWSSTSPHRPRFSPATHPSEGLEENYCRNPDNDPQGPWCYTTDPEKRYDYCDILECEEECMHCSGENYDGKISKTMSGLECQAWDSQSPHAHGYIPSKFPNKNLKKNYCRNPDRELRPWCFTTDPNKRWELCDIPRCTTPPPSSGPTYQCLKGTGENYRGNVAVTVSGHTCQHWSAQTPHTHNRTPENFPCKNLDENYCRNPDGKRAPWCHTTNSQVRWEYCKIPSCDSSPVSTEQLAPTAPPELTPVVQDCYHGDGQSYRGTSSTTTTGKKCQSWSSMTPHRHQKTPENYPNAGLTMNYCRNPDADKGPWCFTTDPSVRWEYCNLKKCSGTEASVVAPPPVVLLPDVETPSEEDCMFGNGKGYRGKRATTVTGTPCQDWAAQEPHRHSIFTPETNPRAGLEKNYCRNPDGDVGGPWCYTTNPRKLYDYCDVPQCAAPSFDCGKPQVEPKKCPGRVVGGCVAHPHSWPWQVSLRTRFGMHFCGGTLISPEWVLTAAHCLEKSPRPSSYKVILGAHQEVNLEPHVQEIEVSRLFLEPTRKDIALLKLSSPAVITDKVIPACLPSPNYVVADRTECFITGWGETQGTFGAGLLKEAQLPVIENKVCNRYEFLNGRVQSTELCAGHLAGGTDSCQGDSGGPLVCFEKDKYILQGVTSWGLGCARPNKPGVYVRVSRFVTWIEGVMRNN

- plasminogen activation on fibrin plates: fibrinolytic zone of the mixture of EPF3 and plasminogen against that of EPF3 alone (3, 6, 18 h, 37°C): 20.2%
B1: EPF3, fibrinolytic protein from Pheretima vulgaris (enzyme)
chain: ILGGTEARVGEIPWQLSQQRGGSHSCGASLLRPGSALSAAHCVDGAPPADVRIVAGLHLRSDESTAVASLAESFLIHPSYNVGEGTFPNDIAIIYLLTNINSAPVENIDFALLPPDNVEQFVGFTCVLSGWGRTSASNVLPDALQKVSIDVITTAECDSRMAAVAGADCTDAHIAVFDPALQKGSCNGDSGGPMNCPLSGEFVVAGVTSWGISGGGACLPEYPSVYTRTGFYRQWIIDNIR
